This passage reports HRP-filled vesicles in endothelial cells of Vtn^RGE mice compared to wildtype animals results from patent US20230383295A1.

This experiment deals with integrin receptors. Description: cell-based or functional assay.

“vitronectin with RGD domain mutated to RGE (knock-in mouse line Vtn^RGE/RGE) (from UniProt P29788 20-478) (ligand)”: the HRP-filled vesicles in endothelial cells of Vtn^RGE mice compared to wildtype animals was 2 fold.
